B1: ZNF263 (parent)
chain: FGGNPRFLSLHRAHLGEEAHKCLE

Variants of: B1
Experiment: protein stability index of a GFP-peptide fusion (GPS, HEK-293T) (PSI 1-6); higher = more stable
Details: c terminus: a fixed tail appended
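Note: lentivirally expressed fusions sorted by FACS into six bins by GFP to DsRed ratio, PSI derived from sequencing read proportions per bin multiplied by bin number.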

Point of comparison: L15D, protein stability index 2.46. Against it:
- R12V — higher, 3.14
- R12P — lower, 1.46
- R12S — lower, 2.17
- R12M — lower, 2.36
- R12C — lower, 1.87
- R12W — lower, 1.58
- R12Y — lower, 1.24
- R12F — lower, 2.35
- R12G — lower, 1.81
- R12K — lower, 1.61
- R12T — lower, 1.95
- R12E — lower, 1.76
- R12A — lower, 2.08
- R12N — higher, 2.49
- R12H — lower, 1.71
- R12Q — lower, 2.22
- R12I — lower, 1.84
- R12L — lower, 1.56
- R12D — lower, 1.85
- A13K — lower, 1.94
- A13R — lower, 2.08
- A13F — higher, 2.52
- A13S — lower, 1.71
- A13L — lower, 1.43
- A13N — lower, 2.04
- A13E — lower, 1.66
- A13D — lower, 1.81
- A13Y — lower, 1.72
- A13I — lower, 1.35
- A13P — lower, 1.56
- A13C — lower, 1.71
- A13T — lower, 1.98
- A13Q — lower, 1.48
- A13V — lower, 1.79
- A13G — lower, 1.99
- A13W — lower, 1.81
- A13M — lower, 2.21
- A13H — lower, 2.26
- F7K — higher, 3.58
- F7L — higher, 2.56
- F7Q — higher, 3.49
- F7T — higher, 3.22
- F7E — higher, 4
- F7M — lower, 2.42
- F7N — higher, 3.42
- F7Y — lower, 2.04
- F7D — higher, 3.51
- F7C — lower, 2.31
- F7A — higher, 2.79
- F7G — higher, 2.63
- F7R — higher, 3.15
- F7S — higher, 3.57
- F7P — higher, 2.71
- F7H — higher, 2.56
- F7I — lower, 2.19
- F7V — higher, 2.64
- L8A — lower, 2.43
- L8E — higher, 2.54
- L8D — higher, 3.1
- L8N — lower, 2.25
- L8C — lower, 1.4
- L8I — lower, 1.41
- L8H — lower, 1.86
- L8M — lower, 2.25
- L8F — lower, 2.16
- L8K — higher, 2.53
- L8S — lower, 2.03
- L8Q — lower, 1.66
- L8V — higher, 2.5
- L8T — higher, 2.77
- L8W — higher, 3.8
- L8Y — higher, 3.2
- L8R — lower, 2.27
- L8G — lower, 2.1
- L8P — lower, 2.01
- H14A — lower, 1.74
- H14E — lower, 1.15
- H14R — lower, 1.24
- H14L — lower, 1.46
- H14N — lower, 1.49
- H14I — higher, 3.64
- H14D — higher, 2.56
- H14V — lower, 1.96
- H14G — lower, 1.95
- H14W — lower, 2.42
- H14T — higher, 3.21
- H14Y — lower, 1.86
- H14P — lower, 1.59
- H14S — lower, 1.35
- H14C — lower, 1.95
- H14K — lower, 1.81
- H14F — higher, 2.55
- H14Q — higher, 2.6
- H14M — lower, 1.69
- L10F — lower, 1.8
- L10Q — lower, 2
- L10P — lower, 2.01
- L10I — lower, 2.06
- L10E — higher, 2.64
- L10T — lower, 1.99
- L10H — lower, 2.17
- L10M — lower, 2.02
- L10W — higher, 3.91
- L10Y — lower, 2.33
- L10V — higher, 2.66
- L10S — lower, 1.62
- L10G — lower, 1.34
- L10K — lower, 2.24
- L10A — lower, 1.74
- L10N — lower, 2.22
- L10R — higher, 2.69
- L10D — higher, 2.47
- H11G — higher, 2.71
- H11K — lower, 1.91
- H11N — lower, 1.8
- H11D — lower, 2.22
- H11S — higher, 3.19
- H11A — lower, 1.41
- H11F — lower, 2.41
- H11R — lower, 1.91
- H11P — lower, 1.75
- H11Y — higher, 3.3
- H11T — higher, 3.17
- H11I — lower, 1.87
- H11C — lower, 2.23
- H11E — lower, 2.01
- H11Q — lower, 1.6
- H11V — higher, 2.55
- L15N — lower, 1.7
- L15A — lower, 1.83
- L15I — lower, 1.54
- L15C — higher, 3.76
- L15W — lower, 2.28
- L15R — lower, 2.05
- L15Q — lower, 1.86
- L15M — lower, 1.62
- L15G — lower, 1.89
- L15H — lower, 2.33
- L15K — lower, 2.06
- L15E — lower, 1.7
- L15S — lower, 1.73
- L15P — lower, 1.94
- L15F — lower, 1.27
- L15T — lower, 1.55
- L15V — lower, 1.34
- S9C — lower, 2.16
- S9I — higher, 2.59
- S9Y — higher, 3.04
- S9Q — higher, 2.9
- S9R — lower, 1.87
- S9M — lower, 1.15
- S9P — lower, 2.1
- S9T — lower, 1.8
- S9F — lower, 2.14
- S9V — lower, 1.71
- S9H — lower, 1.8
- S9K — lower, 1.64
- S9E — lower, 1.97
- S9L — lower, 2.25
- S9N — lower, 1.55
- S9D — lower, 1.34
- S9A — lower, 1.52
- R6T — higher, 2.89
- R6S — lower, 1.79
- R6V — higher, 3.33
- R6W — higher, 5.27
